Values of other authors in publication PMC7755605.

Target: TRAF6 (Homo sapiens) (UniProt Q9Y4K3)
Sequence (Q9Y4K3 whole entry): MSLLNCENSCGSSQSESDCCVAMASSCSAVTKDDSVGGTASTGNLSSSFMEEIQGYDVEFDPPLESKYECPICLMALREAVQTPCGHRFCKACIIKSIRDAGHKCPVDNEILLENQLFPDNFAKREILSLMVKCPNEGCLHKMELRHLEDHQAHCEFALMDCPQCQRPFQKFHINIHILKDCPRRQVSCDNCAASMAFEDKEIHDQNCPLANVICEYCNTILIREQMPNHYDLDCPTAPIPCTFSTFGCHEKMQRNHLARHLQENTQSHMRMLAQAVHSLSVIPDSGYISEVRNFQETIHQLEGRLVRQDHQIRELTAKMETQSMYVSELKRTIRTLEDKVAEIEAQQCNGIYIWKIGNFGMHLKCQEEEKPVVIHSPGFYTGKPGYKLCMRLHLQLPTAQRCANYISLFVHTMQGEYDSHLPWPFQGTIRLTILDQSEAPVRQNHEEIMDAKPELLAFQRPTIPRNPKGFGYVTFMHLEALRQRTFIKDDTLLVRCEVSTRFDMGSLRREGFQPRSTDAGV

Chain of TRANCE-R (Q9Y6Q6 30-616): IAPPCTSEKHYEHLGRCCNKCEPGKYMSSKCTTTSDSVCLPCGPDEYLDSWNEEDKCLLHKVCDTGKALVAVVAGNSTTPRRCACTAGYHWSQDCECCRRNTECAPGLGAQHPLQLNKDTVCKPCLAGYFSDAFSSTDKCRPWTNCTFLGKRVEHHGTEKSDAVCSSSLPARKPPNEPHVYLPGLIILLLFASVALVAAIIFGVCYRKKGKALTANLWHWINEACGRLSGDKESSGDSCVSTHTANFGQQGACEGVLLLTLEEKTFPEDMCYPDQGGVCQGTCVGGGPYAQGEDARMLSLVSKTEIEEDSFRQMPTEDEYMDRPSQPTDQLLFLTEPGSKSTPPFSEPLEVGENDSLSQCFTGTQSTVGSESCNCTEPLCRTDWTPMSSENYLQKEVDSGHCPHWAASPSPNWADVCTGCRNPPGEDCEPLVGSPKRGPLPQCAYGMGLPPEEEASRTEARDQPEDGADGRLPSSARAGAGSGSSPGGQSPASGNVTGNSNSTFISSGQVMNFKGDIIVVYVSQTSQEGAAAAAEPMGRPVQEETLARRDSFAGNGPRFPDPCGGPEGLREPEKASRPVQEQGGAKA

TRANCE-R (from UniProt Q9Y6Q6)
Kd: 84 µM
